Results as given in patent US20200055920A1 (published 2020).

Columns and labels:
Test in all cases: Biacore SPR; receptor-Fc captured by anti-Fc antibody, ligand injected
BMP9 = molecular target: T1, BMP9 (UniProt Q9UK05 320-429)
T1 construct: also called GDF2
T1 sequence (looked up): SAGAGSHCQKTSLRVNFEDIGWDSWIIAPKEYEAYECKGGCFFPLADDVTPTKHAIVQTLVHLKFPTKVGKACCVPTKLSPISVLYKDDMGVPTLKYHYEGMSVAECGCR
Experimental: (§1) Ligands were injected and allowed to flow over the captured receptor protein.

BMP10 = molecular target: T2, BMP10 (UniProt O95393 317-424)
T2 sequence (looked up): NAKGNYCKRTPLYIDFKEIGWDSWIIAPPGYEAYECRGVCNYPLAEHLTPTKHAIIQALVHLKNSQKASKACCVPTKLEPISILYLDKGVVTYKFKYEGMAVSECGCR

GDF5 = molecular target: T3, GDF5 (UniProt P43026 382-501, limits assumed)
T3 construct: also called BMP14
T3 sequence (looked up): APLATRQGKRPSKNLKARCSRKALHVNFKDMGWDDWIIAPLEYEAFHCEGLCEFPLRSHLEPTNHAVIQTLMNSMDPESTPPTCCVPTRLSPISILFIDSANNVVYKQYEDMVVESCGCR
Experimental: as §1

GDF6 = molecular target: T4, GDF6 (UniProt Q6KF10 336-455, limits assumed)
T4 construct: also called BMP13
T4 sequence (looked up): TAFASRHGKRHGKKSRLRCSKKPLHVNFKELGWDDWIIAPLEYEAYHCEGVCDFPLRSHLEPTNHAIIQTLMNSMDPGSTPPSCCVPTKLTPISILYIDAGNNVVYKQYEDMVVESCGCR
Experimental: as §1

BMP2 = BMP2 (UniProt P12643 283-396)
Sequence of BMP2 (P12643 283-396 limits assumed): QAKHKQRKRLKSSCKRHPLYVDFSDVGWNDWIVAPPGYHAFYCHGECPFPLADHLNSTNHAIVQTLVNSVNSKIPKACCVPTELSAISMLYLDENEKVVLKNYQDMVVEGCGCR

BMP7 = molecular target: T5, BMP7 (UniProt P18075 293-431)
T5 construct: also called osteogenic protein-1; OP-1
T5 sequence (looked up): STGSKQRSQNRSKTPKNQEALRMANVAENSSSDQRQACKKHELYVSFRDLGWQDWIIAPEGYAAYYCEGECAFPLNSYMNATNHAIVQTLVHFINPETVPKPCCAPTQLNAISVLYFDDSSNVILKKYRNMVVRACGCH

BMP6 = molecular target: T6, BMP6 (UniProt P22004 382-513, limits assumed)
T6 sequence (looked up): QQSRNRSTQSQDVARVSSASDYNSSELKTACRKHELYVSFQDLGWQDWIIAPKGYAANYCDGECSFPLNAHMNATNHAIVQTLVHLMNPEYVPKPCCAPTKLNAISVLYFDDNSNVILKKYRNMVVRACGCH

BMP5 = molecular target: T7, BMP5 (UniProt P22003 317-454, limits assumed)
T7 sequence (looked up): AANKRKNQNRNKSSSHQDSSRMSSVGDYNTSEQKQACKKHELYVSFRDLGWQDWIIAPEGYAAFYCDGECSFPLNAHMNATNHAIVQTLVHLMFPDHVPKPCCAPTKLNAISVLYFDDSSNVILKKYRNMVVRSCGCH

BMP4 = molecular target: T8, BMP4 (UniProt P12644 293-408)
T8 sequence (looked up): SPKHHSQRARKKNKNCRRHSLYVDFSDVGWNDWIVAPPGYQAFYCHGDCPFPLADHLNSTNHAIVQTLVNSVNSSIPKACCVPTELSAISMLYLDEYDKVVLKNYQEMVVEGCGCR

GDF7 = molecular target: T9, GDF7 (UniProt Q7Z4P5 322-450, limits assumed)
T9 construct: also called BMP12
T9 sequence (looked up): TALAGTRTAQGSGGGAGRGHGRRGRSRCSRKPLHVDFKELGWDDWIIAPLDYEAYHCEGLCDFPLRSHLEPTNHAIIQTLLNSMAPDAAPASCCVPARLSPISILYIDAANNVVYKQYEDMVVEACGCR

Activin A = molecular target: T10, Activin A (UniProt P08476 311-426)
T10 construct: also called βAβA
T10 sequence (looked up): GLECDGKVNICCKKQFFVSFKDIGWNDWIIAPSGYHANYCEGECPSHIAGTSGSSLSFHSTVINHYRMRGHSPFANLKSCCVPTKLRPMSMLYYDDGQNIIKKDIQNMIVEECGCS
Experimental: as §1

GDF8 = molecular target: T11, GDF8 (UniProt O14793 267-375)
T11 construct: also called myostatin; growth and differentiation factor-8
T11 sequence (looked up): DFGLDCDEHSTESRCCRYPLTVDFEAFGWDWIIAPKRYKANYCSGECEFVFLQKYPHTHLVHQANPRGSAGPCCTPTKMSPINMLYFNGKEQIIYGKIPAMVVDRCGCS
Experimental: as §1

Activin B = molecular target: T12, Activin B (UniProt P09529 293-407)
T12 construct: also called βBβB
T12 sequence (looked up): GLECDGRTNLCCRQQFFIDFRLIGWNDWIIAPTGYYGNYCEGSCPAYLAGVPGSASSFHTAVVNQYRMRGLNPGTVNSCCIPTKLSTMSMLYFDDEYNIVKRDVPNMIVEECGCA
Experimental: as §1

GDF11 = molecular target: T13, GDF11 (UniProt O95390 299-407)
T13 construct: also called BMP11
T13 sequence (looked up): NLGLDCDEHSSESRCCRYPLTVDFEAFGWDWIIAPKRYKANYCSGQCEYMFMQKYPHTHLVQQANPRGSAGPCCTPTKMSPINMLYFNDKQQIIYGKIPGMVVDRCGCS
Experimental: as §1

## ALK1-Fc homodimer (Fc fusion)
BMP9
  Kd: 0.016 nM
  koff: 0.00013 s⁻¹
  kon: 7.9e+06 M⁻¹ s⁻¹
BMP10
  Kd: 0.006 nM
  koff: 0.00011 s⁻¹
  kon: 1.7e+07 M⁻¹ s⁻¹

## ALK3-Fc homodimer (Fc fusion)
GDF5
  Kd: 22 nM
  koff: 0.011 s⁻¹
  kon: 480000 M⁻¹ s⁻¹
GDF6
  Kd: 40 nM
  koff: 0.0013 s⁻¹
  kon: 34000 M⁻¹ s⁻¹
BMP2
  Kd: 0.13 nM
  koff: 8.9e-05 s⁻¹
  kon: 680000 M⁻¹ s⁻¹
BMP7
  Kd: 15 nM
  koff: 0.018 s⁻¹
  kon: 1.2e+06 M⁻¹ s⁻¹
BMP6
  Kd: 35 nM
  koff: 0.0049 s⁻¹
  kon: 140000 M⁻¹ s⁻¹
BMP5
  Kd: 70 nM
  koff: 0.002 s⁻¹
  kon: 29000 M⁻¹ s⁻¹
BMP4
  Kd: 0.178 nM
  koff: 5.3e-05 s⁻¹
  kon: 300000 M⁻¹ s⁻¹
GDF7
  Kd: 12 nM
  koff: 0.0027 s⁻¹
  kon: 220000 M⁻¹ s⁻¹

## ActRIIA-Fc homodimer (Fc fusion)
Activin A
  Kd: 0.045 nM
  koff: 0.00062 s⁻¹
  kon: 1.4e+07 M⁻¹ s⁻¹
GDF8
  Kd: 0.099 nM
  koff: 0.0014 s⁻¹
  kon: 1.4e+07 M⁻¹ s⁻¹
Activin B
  Kd: 0.025 nM
  koff: 0.0002 s⁻¹
  kon: 7.9e+06 M⁻¹ s⁻¹
GDF11
  Kd: 0.028 nM
  koff: 0.00072 s⁻¹
  kon: 2.6e+07 M⁻¹ s⁻¹
BMP5
  Kd: 1.1 nM
  koff: 0.0045 s⁻¹
  kon: 4e+06 M⁻¹ s⁻¹
BMP10
  Kd: 0.086 nM
  koff: 0.0025 s⁻¹
  kon: 2.9e+07 M⁻¹ s⁻¹
